In patent US20240294670A1 (University of Texas, published 2024):

How the values were obtained:
Assay in all cases: anti-His co-IP of rCHI3L1 from Kupffer cell lysate, MS; listed under 'proteins bound to CHI3L1'
Q3TVM2_MOUSE = molecular target: T1, Q3TVM2_MOUSE (mouse, UniProt Q3TVM2 20-519)
T1 construct: also called tr|Q3TVM2|Q3TVM2_MOUSE
T1 sequence: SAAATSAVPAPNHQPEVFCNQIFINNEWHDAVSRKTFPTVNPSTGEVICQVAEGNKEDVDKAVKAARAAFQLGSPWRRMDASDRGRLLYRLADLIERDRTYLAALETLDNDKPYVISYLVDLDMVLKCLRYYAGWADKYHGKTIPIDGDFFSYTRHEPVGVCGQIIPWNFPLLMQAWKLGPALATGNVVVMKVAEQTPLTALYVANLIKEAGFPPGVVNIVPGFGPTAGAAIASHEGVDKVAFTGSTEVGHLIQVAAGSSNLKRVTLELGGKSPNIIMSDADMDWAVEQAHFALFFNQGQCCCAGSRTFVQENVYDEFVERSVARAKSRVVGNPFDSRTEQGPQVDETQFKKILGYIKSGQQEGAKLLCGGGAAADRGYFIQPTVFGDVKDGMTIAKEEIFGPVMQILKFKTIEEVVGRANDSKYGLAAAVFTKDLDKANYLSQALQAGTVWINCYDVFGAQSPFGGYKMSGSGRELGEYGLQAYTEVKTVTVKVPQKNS
Method: (§1) CHI3L1 interacts with CD44 on KCs. To further understand how CHI3L1 mediates the function of KCs to recruit platelets, the inventors set out to identify its receptor on KCs. They isolated KCs from WT mice treated with APAP for 3 h and incubated the cells with His-tagged rCHI3L1. The cell lysate was subjected to immunoprecipitation using an anti-His antibody. The “pulled down” fraction was subjected to LC/MS analyses. A partial list of proteins identified, including CHI3L1 itself, is shown in (Extended Data Table 1). Because CD44 is a cell membrane protein, the inventors decided to investigate it is a receptor for CHI3L1. They performed/immunoprecipitation experiments using liver homogenates obtained from WT and CD44^{-/-} mice after APAP treatment. […] Moreover, the inventors incubated rhCHI3L1 with human CD44 and then immunoprecipitated with an anti-CD44 antibody. The data confirmed a direct binding between CHI3L1 and CD44 (FIG. 3C). Consistent with the notion that many cell types express CD44, they detected CD44 express on various hepatic non-parenchymal cells (NPCs) except B cells and DCs (summarized in Extended Data Table 2). However, when they incubated liver NPCs with His-tagged rCHI3L1, the inventors observed that the only CD44-expressing cells that could bind to CHI3L1 were KCs (FIG. 3D).

Q3TJ66_MOUSE = molecular target: T2, Q3TJ66_MOUSE (mouse, UniProt Q3TJ66 2-364)
T2 construct: also called tr|Q3TJ66|Q3TJ66_MOUSE
T2 sequence: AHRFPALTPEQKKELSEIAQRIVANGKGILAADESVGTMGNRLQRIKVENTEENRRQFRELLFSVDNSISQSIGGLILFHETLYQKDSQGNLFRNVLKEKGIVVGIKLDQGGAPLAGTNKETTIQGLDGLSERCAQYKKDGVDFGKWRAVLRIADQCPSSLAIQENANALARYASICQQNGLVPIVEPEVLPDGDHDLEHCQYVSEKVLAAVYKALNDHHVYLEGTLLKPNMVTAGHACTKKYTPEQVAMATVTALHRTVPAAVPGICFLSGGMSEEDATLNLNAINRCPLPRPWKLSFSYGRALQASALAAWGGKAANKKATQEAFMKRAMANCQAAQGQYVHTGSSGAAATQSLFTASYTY
Method: as §1

Q8C6E3_MOUSE = molecular target: T3, Q8C6E3_MOUSE (mouse, UniProt Q8C6E3 2-527)
T3 construct: also called tr|Q8C6E3|Q8C6E3_MOUSE
T3 sequence: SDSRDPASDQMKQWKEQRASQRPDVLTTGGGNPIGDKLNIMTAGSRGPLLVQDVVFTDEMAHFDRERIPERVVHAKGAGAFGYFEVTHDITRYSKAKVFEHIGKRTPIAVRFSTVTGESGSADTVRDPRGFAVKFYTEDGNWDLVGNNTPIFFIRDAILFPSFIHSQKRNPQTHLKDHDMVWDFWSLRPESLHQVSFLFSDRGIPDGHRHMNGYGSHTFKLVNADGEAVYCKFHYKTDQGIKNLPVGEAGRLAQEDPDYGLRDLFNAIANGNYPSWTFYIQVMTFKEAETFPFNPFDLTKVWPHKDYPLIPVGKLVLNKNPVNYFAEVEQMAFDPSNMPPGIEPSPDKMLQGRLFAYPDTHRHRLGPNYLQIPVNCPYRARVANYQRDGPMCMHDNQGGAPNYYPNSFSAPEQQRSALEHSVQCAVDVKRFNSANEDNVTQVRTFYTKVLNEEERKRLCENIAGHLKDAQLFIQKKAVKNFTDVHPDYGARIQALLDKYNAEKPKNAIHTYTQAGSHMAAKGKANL
Method: as §1

Measured: binding result

B1: recombinant mouse CHI3L1 (ligand)
chain: not shown
notes: His-tagged; also called mCHI3L1; mChi3l1
binds: all assays above
